Reference: PMC7587433, “A Giant Extracellular Matrix Binding Protein of Staphylococcus epidermidis Binds Surface-Immobilized Fibronectin via a Novel Mechanism” (mBio, 2020)

Biological target: T1, rFN12-14 (recombinant fibronectin type III repeats 12 to 14)
T1 construct: fibronectin, type III repeats 12 to 14; Held by its His tag on Immobilizer Nickel-Chelate plates in the adherence assays; immobilised on a C1 sensor chip in SPR
Assay: SPR; Biacore T200, C1 sensor chip; rFN12-14 immobilised (~870 RU); rF-, rFG-repeat or multiple repeats in HBS-EP injected at 40 μl/min; double referencing
Conditions: both partners purified

B1: r5FG-repeats (recombinant Embp fragment, aa 6777 to 7406) (domain or fragment)
chain: ADQKLQDAKTDAKQQITNFTGLTEPQKQALENIINQQTSRANVAKQLSHAKFLNGKMEELKVAVAKASLVRQNSNYINEDVSEKEAYEQAIAKGQEIINSENNPTISSTDINRTIQEINDAEQNLHGDNKLRQAQEIAKNEIQNLDGLNSAQITKLIQDIGRTTTKPAVTQKLEEAKAINQAMQQLKQSIADKDATLNSSNYLNEDSEKKLAYDNAVSQAEQLINQLNDPTMDISNIQAITQKVIQAKDSLHGANKLAQNQADSNLIINQSTNLNDKQKQALNDLINHAQTKQQVAEIIAQANKLNNEMGTLKTLVEEQSNVHQQSKYINEDPQVQNIYNDSIQKGREILNGTTDDVLNNNKIADAIQNIHLTKNDLHGDQKLQKAQQDATNELNYLTNLNNSQRQSEHDEINSAPSRTEVSNDLNHAKALNEAMRQLENEVALENSVKKLSDFINEDEAAQNEYSNALQKAKDIINGVPSSTLDKATIEDALLELQNARESLHGEQKLQEAKNQAVAEIDNLQALNPGQVLAEKTLVNQASTKPEVQEALQKAKELNEAMKALKTEINKKEQIKADSRYVNADSGLQANYNSALNYGSQIIATTQPPELNKDVINRATQTIKTAENNLN
Question: Which Kd does the source give for B1 here?
Answer: The Kd was 10 µM.
